Molecular target: CP* (calprotectin, S100A8 C42S / S100A9 C3S heterodimer) (UniProt P05109)
Assay: crystal structure; Ca2+-loaded CP* with 0.7 equivalents of Zn2+; 20 mM Tris pH 7.5, 100 mM NaCl, 2 mM MgCl2; hanging drop, 20°C, 1.0M sodium citrate (pH 5.2), 28% MPD; 1.87 Å

stoichiometry N: 2
Substance: CP* (calprotectin, S100A8 C42S / S100A9 C3S heterodimer) (from UniProt P05109 1-87; P06702 5-112) (complex)

Source: article PMC12432413
